Reference: US20070281326A1 (QUARK PHARMACEUTICALS, published 2007)

Tests used:
TSC2 [1] = target: T1, TSC2 (human, UniProt P49815 1-1807, limits assumed); experiment: pull-down from cell extract with 6XHis baits (FIG. 13)
T1 construct: TSC2 without a stated tag, endogenous or expressed from transfected cDNA in 293T cell extracts; also called tuberin; endogenous TSC2

TSC2 [2] = target: T1, TSC2; experiment: co-IP from transfected 293T extract, immunoblot (FIG. 11)
HA-tagged TSC2 = target: T2, HA-tagged TSC2 (human, UniProt P49815 1-1807); experiment: co-IP with anti-FLAG from CoCl2-treated 293T cells (FIG. 25)
T2 construct: Expressed in 293T cells; used as cell extract; also called HA-TSC2; full length HA-tagged TSC2; not shown: HA tag
T2 sequence (P49815 other isoform, or with tags, fused parts or gaps limits assumed): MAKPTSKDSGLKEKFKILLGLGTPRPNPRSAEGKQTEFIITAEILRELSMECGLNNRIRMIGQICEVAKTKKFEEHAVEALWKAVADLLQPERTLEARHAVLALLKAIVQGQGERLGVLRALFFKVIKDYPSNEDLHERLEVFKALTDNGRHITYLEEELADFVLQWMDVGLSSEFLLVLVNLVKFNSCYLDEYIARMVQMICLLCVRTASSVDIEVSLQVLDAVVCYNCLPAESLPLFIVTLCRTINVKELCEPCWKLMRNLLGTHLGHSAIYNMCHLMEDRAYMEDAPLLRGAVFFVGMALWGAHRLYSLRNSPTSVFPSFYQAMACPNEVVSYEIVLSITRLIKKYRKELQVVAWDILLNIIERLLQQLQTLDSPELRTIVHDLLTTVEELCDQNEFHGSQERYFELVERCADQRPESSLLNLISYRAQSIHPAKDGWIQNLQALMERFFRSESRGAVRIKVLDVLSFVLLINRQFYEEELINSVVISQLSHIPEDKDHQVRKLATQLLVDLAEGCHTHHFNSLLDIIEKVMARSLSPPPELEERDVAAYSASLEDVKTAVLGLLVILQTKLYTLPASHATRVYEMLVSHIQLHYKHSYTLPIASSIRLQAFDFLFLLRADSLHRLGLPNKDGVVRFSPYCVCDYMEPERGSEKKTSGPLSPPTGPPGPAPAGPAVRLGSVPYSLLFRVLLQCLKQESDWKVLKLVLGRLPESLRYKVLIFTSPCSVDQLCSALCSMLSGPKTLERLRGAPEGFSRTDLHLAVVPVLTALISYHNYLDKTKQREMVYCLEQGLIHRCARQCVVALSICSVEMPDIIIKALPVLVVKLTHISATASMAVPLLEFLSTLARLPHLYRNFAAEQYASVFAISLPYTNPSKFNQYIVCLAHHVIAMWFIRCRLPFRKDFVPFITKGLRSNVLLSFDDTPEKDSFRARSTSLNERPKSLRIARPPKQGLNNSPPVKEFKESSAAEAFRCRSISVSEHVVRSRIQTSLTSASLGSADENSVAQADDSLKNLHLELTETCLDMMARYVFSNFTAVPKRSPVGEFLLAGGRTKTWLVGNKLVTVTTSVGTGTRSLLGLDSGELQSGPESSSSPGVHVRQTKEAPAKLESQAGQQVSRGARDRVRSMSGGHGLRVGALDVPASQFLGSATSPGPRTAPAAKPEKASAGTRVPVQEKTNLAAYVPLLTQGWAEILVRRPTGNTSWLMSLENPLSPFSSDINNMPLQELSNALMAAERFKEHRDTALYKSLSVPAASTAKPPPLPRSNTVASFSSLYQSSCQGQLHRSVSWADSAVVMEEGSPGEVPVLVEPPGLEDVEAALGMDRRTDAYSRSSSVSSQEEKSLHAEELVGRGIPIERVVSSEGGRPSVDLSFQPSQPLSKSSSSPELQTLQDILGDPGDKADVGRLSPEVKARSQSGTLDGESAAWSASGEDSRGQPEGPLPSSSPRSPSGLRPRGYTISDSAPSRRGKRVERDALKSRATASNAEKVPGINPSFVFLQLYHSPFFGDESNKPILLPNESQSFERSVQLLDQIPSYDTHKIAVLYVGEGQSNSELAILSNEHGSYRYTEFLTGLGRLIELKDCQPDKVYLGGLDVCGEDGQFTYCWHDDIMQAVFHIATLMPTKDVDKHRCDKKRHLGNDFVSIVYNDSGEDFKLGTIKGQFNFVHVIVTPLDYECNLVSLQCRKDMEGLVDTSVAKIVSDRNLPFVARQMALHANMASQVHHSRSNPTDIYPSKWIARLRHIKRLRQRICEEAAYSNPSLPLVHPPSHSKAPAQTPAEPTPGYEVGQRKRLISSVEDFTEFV

[3] = target: T3, TSC2 “N” fragment (a.a. 2-935), HA-tagged (human, UniProt P49815 2-935); experiment: co-IP with anti-FLAG from 293T extract, anti-HA blot (FIG. 17)
T3 construct: also called HA-“N” fragment of TSC2; not shown: HA tag
T3 sequence (P49815 other isoform, or with tags, fused parts or gaps): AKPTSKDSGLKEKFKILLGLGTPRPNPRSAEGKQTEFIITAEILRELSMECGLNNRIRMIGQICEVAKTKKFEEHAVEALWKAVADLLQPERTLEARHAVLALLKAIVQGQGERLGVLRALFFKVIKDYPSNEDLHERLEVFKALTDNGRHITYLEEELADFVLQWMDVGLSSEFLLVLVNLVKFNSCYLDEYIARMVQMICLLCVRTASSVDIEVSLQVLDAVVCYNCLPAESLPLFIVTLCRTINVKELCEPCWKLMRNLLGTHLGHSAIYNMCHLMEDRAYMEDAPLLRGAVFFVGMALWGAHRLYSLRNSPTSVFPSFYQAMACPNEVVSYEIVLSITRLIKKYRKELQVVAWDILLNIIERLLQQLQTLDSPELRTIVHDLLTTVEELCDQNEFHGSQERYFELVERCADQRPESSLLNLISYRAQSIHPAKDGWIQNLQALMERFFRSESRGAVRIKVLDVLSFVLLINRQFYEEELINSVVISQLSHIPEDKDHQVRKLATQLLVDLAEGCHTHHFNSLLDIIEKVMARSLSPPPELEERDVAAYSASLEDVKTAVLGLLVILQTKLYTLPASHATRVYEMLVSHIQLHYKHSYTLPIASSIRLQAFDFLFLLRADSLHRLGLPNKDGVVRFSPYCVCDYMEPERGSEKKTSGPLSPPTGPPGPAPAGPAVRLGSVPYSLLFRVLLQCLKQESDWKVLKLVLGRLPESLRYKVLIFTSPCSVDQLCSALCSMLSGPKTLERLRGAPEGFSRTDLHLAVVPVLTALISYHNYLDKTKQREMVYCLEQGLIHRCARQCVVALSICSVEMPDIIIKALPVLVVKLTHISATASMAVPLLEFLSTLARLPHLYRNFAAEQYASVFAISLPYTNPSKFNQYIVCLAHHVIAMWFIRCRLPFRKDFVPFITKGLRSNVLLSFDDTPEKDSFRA

TSC2 [4] = target: T1, TSC2; experiment: summary of Example 6
[5] = target: T4, HA-SV5-full length hRTP801 (human, UniProt Q9NX09 1-232); experiment: co-IP with M2 anti-FLAG resin from CoCl2-treated 293T HEK extract (FIG. 21)
T4 construct: Expressed in 293T HEK cells; also called HA-full length hRTP801; HA-SV5-hRTP801; not shown: HA tag; SV5 tag
T4 sequence: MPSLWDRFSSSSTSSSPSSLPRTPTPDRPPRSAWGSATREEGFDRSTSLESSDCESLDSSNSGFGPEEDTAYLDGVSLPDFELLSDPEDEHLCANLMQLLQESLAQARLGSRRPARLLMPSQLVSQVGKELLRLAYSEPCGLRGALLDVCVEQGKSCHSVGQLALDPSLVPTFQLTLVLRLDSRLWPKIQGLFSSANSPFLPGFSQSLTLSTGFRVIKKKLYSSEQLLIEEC

T1 sequence (P49815 other isoform, or with tags, fused parts or gaps limits assumed): as the sequence (P49815 other isoform, or with tags, fused parts or gaps limits assumed) above

B1: 6XHis hRTP801 N-fragment (other)
chain: MPSLWDRFSSSSTSSSPSSLPRTPTPDRPPRSAWGSATREEGFDRSTSLESSDCESLDSSNSGFGPEEDTAYLDGVSLPDFELLSDPE
notes: not shown: 6XHis tag
**Q.** Does B1 bind (TSC2 [1])?
**A.** no binding

B2: FLAG-hRTP801 (other)
chain: MPSLWDRFSSSSTSSSPSSLPRTPTPDRPPRSAWGSATREEGFDRSTSLESSDCESLDSSNSGFGPEEDTAYLDGVSLPDFELLSDPEDEHLCANLMQLLQESLAQARLGSRRPARLLMPSQLVSQVGKELLRLAYSEPCGLRGALLDVCVEQGKSCHSVGQLALDPSLVPTFQLTLVLRLDSRLWPKIQGLFSSANSPFLPGFSQSLTLSTGFRVIKKKLYSSEQLLIEEC
notes: Expressed by transient transfection in 293T cells; full length hRTP801 with FLAG tag; also called FLAG-full length hRTP801; FLAG-RTP801; not shown: FLAG tag
**Q.** Does B2 bind (TSC2 [2])?
**A.** binds

**Q.** Does B2 bind (HA-tagged TSC2)?
**A.** binds

**Q.** Does B2 bind [3]?
**A.** binds

B3: hRTP801 (other)
chain: MPSLWDRFSSSSTSSSPSSLPRTPTPDRPPRSAWGSATREEGFDRSTSLESSDCESLDSSNSGFGPEEDTAYLDGVSLPDFELLSDPEDEHLCANLMQLLQESLAQARLGSRRPARLLMPSQLVSQVGKELLRLAYSEPCGLRGALLDVCVEQGKSCHSVGQLALDPSLVPTFQLTLVLRLDSRLWPKIQGLFSSANSPFLPGFSQSLTLSTGFRVIKKKLYSSEQLLIEEC
notes: also called endogenous hRTP801; exogenous hRTP801
**Q.** Does B3 bind (TSC2 [4])?
**A.** binds

B4: FLAG-(N-C2)hRTP801 (other)
chain: MPSLWDRFSSSSTSSSPSSLPRTPTPDRPPRSAWGSATREEGFDRSTSLESSDCESLDSSNSGFGPEEDTAYLDGVSLPDFELLSDPEDEHLCANLMQLLQESLAQARLGSRRPARLLMPSQLVSQVGKELLRLAYSEPCGLRGALLDVCVEQGKSCHSVGQLALDPSLVPTFQLTLVLRLDSRLWPKIQGLFSS
notes: also called hRTP801 N-C2 fragment; hRTP801 N-C2 mutant; not shown: FLAG tag
**Q.** Does B4 bind [5]?
**A.** binds
